Results on 2 molecules are retold here after patent publication US12241890B2, “Methods for generating barcoded nucleic acid molecules using fixed cells” (10X Genomics, Inc., priority 2019, dated 2025).

Common to all, as to format: cell-based
Test [1] concerns PFA-fixed Jurkats cells. Kind of test: RNA yield and DV200 from PFA-fixed Jurkats after Proteinase K with or without compounds (1) and/or (8) (Example 5). The settings on record: 4% PFA-fixed Jurkats, 53° C./45 min. How it is done: A. Protease preparation: A stock solution of 20 mg/mL Proteinase K (Sigma-Aldrich, cat. #_AM258) was stored at −20° C.
(§1) B. Un-fixing agent stock solutions: A stock solution of the un-fixing agent of 100 mM compound (1) in 30 mM Tris-HCl, 1 mM EDTA, pH 6.8, was prepared and stored at room temperature. A stock solution of the un-fixing agent of 100 mM compound (8) in 30 mM Tris-HCl, 1 mM EDTA, pH 6.8, was prepared and stored at room temperature.
(§2) C. Fixed cell preparation: Dissociated single cells (Jurkats) were pelleted by 400 g centrifugation for 5 minutes and the supernatant removed. A fixing reagent solution of 4% PFA in PBS with 0.2 U/μL Qiagen RNAse Inhibitor (Qiagen, cat. #129916) was added to the pelleted cells and the mixture incubated at 4° C. overnight. The resulting fixed cells were quenched with 10% FBS in PBS and spun down for 5 minutes at 500 g, 4° C. 150,000 fixed cells were washed once in PBS then resuspended in 100 μL, 30 mM Tris-HCL, 1 mM EDTA, pH 6.8.
D. Cell un-fixing/protease treatment: RNAse Inhibitor was added to the fixed cell solution together with one of the following: (a) 0.1 mg/mL Proteinase K protease; (b) 0.2 mg/mL Proteinase K protease; (c) 0.4 mg/mL Proteinase K protease; (d) 0.2 mg/mL Proteinase K protease and 50 mM compound (1); (e) 0.4 mg/mL Proteinase K protease and 50 mM compound (1); (f) 0.2 mg/mL Proteinase K protease and 50 mM compound (8); (g) 0.4 mg/mL Proteinase K protease and 50 mM compound (8); (h) 0.2 mg/mL Proteinase K protease and 25 mM compound (8) and 25 mM compound (1); or (i) 0.4 mg/mL Proteinase K protease and 25 mM compound (8) and 25 mM compound (1). The fixed cell solutions treated with Proteinase K protease and with or without the un-fixing agents of compounds (1) and/or (8) were allowed to incubate at 53° C. for 45 min. The resulting cell solutions were spun down for 5 minutes at 500 g, 4° C., and the supernatant and pellet fractions were collected separately.
(§3) E. RNA quantitation: RNA extraction of the collected fractions was carried out using Qiagen 96 Kit (Qiagen, cat. #74181), bulk RNA sequencing, and/or single cell 3′ sequencing. Control samples of fresh cells, fresh cells with un-fixing conditions, and fixed cells without un-fixing treatment were also prepared and RNA extracted. RNA yield was assessed by Qubit HS Assay (Q32855) and yield and DV200 quality metric was assessed by Agilent 4200 High Sensitivity ScreenTape (5067-5579).

Test [2] deals with PFA-fixed Jurkats cells. Kind of test: Bulk un-fixing, then single-cell partition barcoding, 3'-RT and cDNA electropherogram (Example 7). The note with it: Fresh cells partitioned with the RT assay reagent mix and the protease. How it is done:
A. Protease preparation: A stock solution of 20 mg/mL Proteinase K (Sigma-Aldrich, cat. #AM258) was stored at −20° C.
B. Un-fixing agent of compound (8) stock solutions: A stock solution of the un-fixing agent of 100 mM compound (8) in 30 mM Tris-HCl, 1 mM EDTA, pH 6.8, was prepared and stored at room temperature.
as §2
D. Cell un-fixing/protease treatment: RNAse Inhibitor was added to the fixed cell solution together with 0.1 mg/mL Proteinase K and 50 mM compound (8). The fixed cell solution treated with the protease and compounds (8) were allowed to incubate at 53° C. for 45 min. The resulting cell solutions were spun down for 5 minutes at 500 g, 4° C., and the supernatant and pellet fractions were collected separately. […]

Test [3] has as its system PFA-fixed Jurkats cells. Kind of test: RNA yield and DV200 from PFA-fixed Jurkats after Subtilisin A with or without compound (1) (Example 2). The settings on record: 4% PFA-fixed Jurkats, 50 mM compound (1) where present. How it is done:
Materials and Methods: A protease stock solution of 100 mg/ml Subtilisin A from Bacillus licheniformis (Sigma-Aldrich, cat. #P5380) was prepared in H2O and stored at −20° C. A stock solution of the un-fixing agent of 100 mM compound (1) in 30 mM Tris-HCl, 1 mM EDTA, pH 6.8, was prepared and stored at room temperature. Dissociated single cells (Jurkats) were pelleted by 400 g centrifugation for 5 minutes and the supernatant removed. A fixing reagent solution of 4% PFA in PBS with 0.2 U/μL Qiagen RNAse Inhibitor (Qiagen, cat. #129916) was added to the pelleted cells and the mixture incubated at 4° C. overnight. The resulting fixed cells were quenched with 10% FBS in PBS and spun down for 5 minutes at 500 g, 4° C. 150,000 fixed cells were washed once in PBS then resuspended in 100 μL, 30 mM Tris-HCL, 1 mM EDTA, pH 6.8. RNAse Inhibitor was added to the fixed cell solution together with one of the following: (a) 5 mg/mL Subtilisin A; or (b) 5 mg/mL Subtilisin A and 50 mM compound (1). The fixed cell solution with Subtilisin A protease and with or without the un-fixing agent of compound (1) was allowed to incubate at 8° C. for 2 hours, followed by 15 minutes at 70° C. shaking continuously at 300 rpm on an Eppendorf Thermomixer. The resulting cell solutions were spun down for 5 minutes at 500 g, 4° C., and the supernatant and pellet fractions were collected separately. RNA extraction of the collected fractions was carried out using Qiagen 96 Kit (Qiagen, cat. #74181), bulk RNA sequencing, and/or single cell 3′ sequencing. Control samples of fresh cells, fresh cells with un-fixing conditions, and fixed cells without un-fixing treatment were also prepared and RNA extracted. RNA yield was assessed by Qubit HS Assay (Q32855) and yield and DV200 quality metric was assessed by Agilent 4200 High Sensitivity ScreenTape (5067-5579).

Test [4] relates to PFA-fixed Jurkats cells. Kind of test: RNA yield and DV200 from PFA-fixed Jurkats after Subtilisin A with or without compounds (1) and/or (8) (Example 4). The note with it: 5 mg/mL Subtilisin A. On the procedure:
A. Protease preparation: A protease stock solution of 100 mg/ml Subtilisin A from Bacillus licheniformis (Sigma-Aldrich, cat. #P5380) was prepared in H2O and stored at −20° C.
as §1, §2
D. Cell un-fixing/protease treatment: RNAse Inhibitor was added to the fixed cell solution together with one of the following: (a) 5 mg/mL Subtilisin A protease; (b) 5 mg/mL Subtilisin A protease and 50 mM compound (1); (c) 5 mg/mL Subtilisin A protease and 50 mM compound (8); (d) 5 mg/mL Subtilisin A protease and 25 mM compound (8) and 25 mM compound (1).
The fixed cell solutions treated with Subtilisin A protease and with or without the un-fixing agents of compounds (1) and/or (8) were allowed to incubate under one of the following conditions: (1) 8° C. for 2 hours; (2) 8° C. for 2 hours, followed by 15 minutes at 70° C. shaking continuously at 300 rpm on an Eppendorf Thermomixer; (3) 53° C. for 45 min; or (4) 53° C. for 45 min followed by 15 minutes at 70° C. shaking continuously at 300 rpm on an Eppendorf Thermomixer. The resulting cell solutions were spun down for 5 minutes at 500 g, 4° C., and the supernatant and pellet fractions were collected separately.
as §3

Setting [5] is: Proteinase K at 0.2 mg/mL, un-fixing agent 50 mM (25 mM each in combination).
Setting [6] is: Proteinase K at 0.4 mg/mL, un-fixing agent 50 mM (25 mM each in combination).
[7] abbreviates: 5 mg/mL Subtilisin A, 8° C./2 hr.
Where [8] appears, read: un-fixing agent 50 mM (25 mM each in combination), 8° C./2 hr then 70° C./15 min.
[9] abbreviates: un-fixing agent 50 mM (25 mM each in combination), 53° C./45 min.

B1: Proteinase K: the protease, Proteinase K (Sigma-Aldrich, cat. #AM258) (protein, UniProt P06873 106-384, looked up)
Proteinase K: AAQTNAPWGLARISSTSPGTSTYYYDESAGQGSCVYVIDTGIEASHPEFEGRAQMVKTYYYSSRDGNGHGTHCAGTVGSRTYGVAKKTQLFGVKVLDDNGSGQYSTIIAGMDFVASDKNNRNCPKGVVASLSLGGGYSSSVNSAAARLQSSGVMVAVAAGNNNADARNYSPASEPSVCTVGASDRYDRRSSFSNYGSVLDIFGPGTSILSTWIGGSTRSISGTSMATPHVAGLAAYLMTLGKTTAASACRYIADTANKGDLSNIPFGTVNLLAYNNYQA
With B1, in the test on PFA-fixed Jurkats cells [1] (Proteinase K at 0.1 mg/mL), the “Pellet Qubit Avg (SD), RNA yield” value amounted to 1350; the “Pellet Tapestation Avg (SD), RNA yield” value is given as 1804.5; the “Supernatant Qubit Avg (SD), RNA yield” value is given as 321.3; the “Supernatant Tapestation Avg (SD), RNA yield” value is 152.55. In the test with PFA-fixed Jurkats cells [1] (setting [5]), the “Pellet Qubit Avg (SD), RNA yield” value was determined as 107.82; the “Pellet Tapestation Avg (SD), RNA yield” value was 127.8; the “Supernatant Qubit Avg (SD), RNA yield” value was 251.1; the “Supernatant Tapestation Avg (SD), RNA yield” value is 121.05. Also, in the test with PFA-fixed Jurkats cells [1] (setting [6]), the “Pellet Qubit Avg (SD), RNA yield” value turned out to be 106.2; the “Pellet Tapestation Avg (SD), RNA yield” value was 76.725; the “Supernatant Qubit Avg (SD), RNA yield” value was 266.4; the “Supernatant Tapestation Avg (SD), RNA yield” value worked out at 125.55. In the test on PFA-fixed Jurkats cells [2], the “cDNA electropherogram profile from single-cell 3'-RT (FIG. 11B)” value is recorded as “no mound profile”.

B2: Subtilisin A: protease Subtilisin A from Bacillus licheniformis (Sigma-Aldrich, cat. #P5380) (protein, UniProt P00780 106-379, looked up)
Subtilisin Carlsberg: AQTVPYGIPLIKADKVQAQGFKGANVKVAVLDTGIQASHPDLNVVGGASFVAGEAYNTDGNGHGTHVAGTVAALDNTTGVLGVAPSVSLYAVKVLNSSGSGSYSGIVSGIEWATTNGMDVINMSLGGASGSTAMKQAVDNAYAKGVVVVAAAGNSGSSGNTNTIGYPAKYDSVIAVGAVDSNSNRASFSSVGAELEVMAPGAGVYSTYPTNTYATLNGTSMASPHVAGAAALILSKHPNLSASQVRNRLSSTATYLGSSFYYGKGLINVEAAAQ
As for B2, in the test on PFA-fixed Jurkats cells [3] (setting [7]), the “Pellet Qubit Avg (SD), RNA yield” value is recorded as 21; the “Pellet Tapestation Avg (SD), RNA yield” value turned out to be 21; the “Supernatant Tapestation Avg (SD), RNA yield” value came out at 8. For the same molecule, in the test with PFA-fixed Jurkats cells [3] (Subtilisin A, 2 h at 8° C.), the “RNA recovery relative to fresh cells” value is listed as “about 7%”. Besides, in the test with PFA-fixed Jurkats cells [4] (8° C./2 hr), the “Pellet Qubit Avg (SD), RNA yield” value is listed as 108.4; the “Pellet Tapestation Avg (SD), RNA yield” value amounted to 49; the “Supernatant Qubit Avg (SD), RNA yield” value turned out to be 0. Besides, in the test on PFA-fixed Jurkats cells [4] (setting [8]), the “Pellet Qubit Avg (SD), RNA yield” value stood at 106; the “Pellet Tapestation Avg (SD), RNA yield” value was 58; the “Supernatant Qubit Avg (SD), RNA yield” value is listed as 398; the “Supernatant Tapestation Avg (SD), RNA yield” value is recorded as 231. In the test with PFA-fixed Jurkats cells [4] (setting [9]), the “Pellet Qubit Avg (SD), RNA yield” value came to 144; the “Pellet Tapestation Avg (SD), RNA yield” value amounted to 244; the “Supernatant Qubit Avg (SD), RNA yield” value was 245; the “Supernatant Tapestation Avg (SD), RNA yield” value came out at 252.
